We go through one substance from IntAct's records for PubMed 17229891.

For this experiment, the target named is 1433b_human YWHAB (UniProt P31946).
Sequence of UniProt P31946 (P31946 whole entry): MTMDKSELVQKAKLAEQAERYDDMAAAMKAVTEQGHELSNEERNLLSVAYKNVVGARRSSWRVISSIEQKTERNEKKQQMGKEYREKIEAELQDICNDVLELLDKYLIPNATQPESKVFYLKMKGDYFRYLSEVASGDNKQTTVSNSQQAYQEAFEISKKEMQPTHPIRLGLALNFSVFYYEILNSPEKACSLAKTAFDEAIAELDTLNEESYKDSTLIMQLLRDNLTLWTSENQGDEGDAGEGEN

Consider “Dual specificity tyrosine-phosphorylation-regulated kinase 1A (Homo sapiens) (from UniProt Q13627-2) S520A”, for which the “effect of a mutation on the interaction” value was “decreasing interaction”.
